From paper PMC4705956

Molecular target: Asp93 (UniProt position 93, WARYADWLFTT)
Assay: UV-vis
Conditions: 298 K; 100 mM NaCl (Fig. 7 caption); the Methods state 4 M NaCl for UV-visible spectroscopy; Not stated for the titration; the Methods give 50 mM Tris-HCl for UV-visible samples; Folded, retinal-bound, detergent-solubilised. Light or dark adaptation is not stated.

| Substance | pKa |
| --- | --- |
| Bacteriorhodopsin (HwBR) (Haloquadratum walsbyi) | 1.97 |
| Bacteriorhodopsin (HwBR) R82E mutant (Haloquadratum walsbyi; R82E) | 2.24 |
